Target: WA-1 NTD probe (SARS-CoV-2 WA-1, UniProt P0DTC2, biotin on the AVI tag (…))
Experiment: BLI
Settings: both partners purified

B1: 5–7 (antibody, V domains shown)
VH: QVQLVQSGAEVKKPGASVKVSCKASGYTFTSYYMHWVRQAPGQGLEWMGVINPSGGSTSYAEKFRGRVTMTRDTSTSTVYMELSSLRSEDTAVYYCARDREPHSDSSGYWDSLKYYYYYALDVWGQGTTVTVSS
VL: AIQLTQSPSSLSASVGDRVTITCRASQGISSYLAWYQQKPGKAPELLIYAASTLQSGVPSRFSGSGSGTDFTLTISSLQPEDFATYYCQQLNTYPFTFGPGTKVDIK
notes: also called antibody 5-7
- binding result: binds

Reference: PMC9129042 (PLoS ONE, 2022)
